Reference: paper PMC5892879, “Structures of the Mycobacterium tuberculosis GlpX protein (class II fructose-1,6-bisphosphatase): implications for the active oligomeric state, catalytic mechanism and citrate inhibition” (Acta Crystallographica. Section D, Structural Biology, 2018)

Columns and labels:
Experiment in all cases: crystal structure
[1] = molecular target: Mycobacterium tuberculosis class II fructose-1,6-bisphosphatase (GlpX protein), T84A variant (Mycobacterium tuberculosis) (UniProt P9WN21)
[2] = molecular target: Mycobacterium tuberculosis class II fructose-1,6-bisphosphatase (GlpX protein), T84S variant (Mycobacterium tuberculosis) (UniProt P9WN21)
[3] = molecular target: Mycobacterium tuberculosis class II fructose-1,6-bisphosphatase (GlpX protein), wild type (Mycobacterium tuberculosis) (UniProt P9WN21)

Mycobacterium tuberculosis class II fructose-1,6-bisphosphatase (GlpX protein), T84A variant (from UniProt P9WN21) (enzyme)
stoichiometry N [1]: 4

Mycobacterium tuberculosis class II fructose-1,6-bisphosphatase (GlpX protein), T84S variant (from UniProt P9WN21) (enzyme)
stoichiometry N [2]: 4

Mycobacterium tuberculosis class II fructose-1,6-bisphosphatase (GlpX protein), wild type (from UniProt P9WN21 35-362) (enzyme)
stoichiometry N [3]: 4
